Experimental data reported in patent US20190135908A1 (Novartis, published 2019).

Key:
[1] = target: T1, GDF15 mutant I285R (knuckle region), albumin fusion (human, UniProt Q99988 195-308); assay: direct ELISA on coated albumin-fusion GDF15 mutant
T1 construct: not shown: albumin fusion partner
T1 chain: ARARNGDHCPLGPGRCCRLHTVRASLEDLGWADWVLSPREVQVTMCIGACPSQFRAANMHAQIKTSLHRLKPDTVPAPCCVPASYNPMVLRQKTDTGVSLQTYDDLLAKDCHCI
Description: (§1) Antibody epitope was determined by a direct ELISA method with GDF15 mutants. Albumin fusion GDF15 mutants were coated in wells of a 96-well EIA plate. After blocking, serially diluted anti-hGDF15 human antibodies were added to the GDF15-coated wells, followed by incubation at an ambient temperature for a few hours. Antibody binding was detected using an anti-human IgG antibody conjugated with horseradish peroxidase (HRP) and HRP substrate.

[2] = target: T2, GDF15 mutant S231R (knuckle region), albumin fusion (human, UniProt Q99988 195-308); assay: direct ELISA on coated albumin-fusion GDF15 mutant
T2 construct: not shown: albumin fusion partner
T2 chain: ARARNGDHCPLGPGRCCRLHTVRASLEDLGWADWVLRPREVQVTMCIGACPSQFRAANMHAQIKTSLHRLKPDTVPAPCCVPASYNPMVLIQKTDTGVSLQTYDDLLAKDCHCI
Description: as §1

[3] = target: T3, GDF15 mutant Q247R (wrist region), albumin fusion (human, UniProt Q99988 195-308); assay: direct ELISA on coated albumin-fusion GDF15 variant
T3 construct: not shown: albumin fusion partner
T3 chain: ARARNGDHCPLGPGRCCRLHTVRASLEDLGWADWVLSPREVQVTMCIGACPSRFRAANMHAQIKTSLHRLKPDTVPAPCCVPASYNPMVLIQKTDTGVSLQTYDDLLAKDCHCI
Description: as §1

[4] = target: T4, GDF15 mutant W228R (wrist region), albumin fusion (human, UniProt Q99988 195-308); assay: as above
T4 construct: not shown: albumin fusion partner
T4 chain: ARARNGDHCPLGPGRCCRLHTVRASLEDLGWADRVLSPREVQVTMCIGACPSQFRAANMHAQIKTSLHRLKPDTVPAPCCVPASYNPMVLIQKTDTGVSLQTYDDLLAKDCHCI
Description: as §1

[5] = target: T5, GDF15 mutant M253R (wrist region), albumin fusion (human, UniProt Q99988 195-308); assay: as above
T5 construct: not shown: albumin fusion partner
T5 chain: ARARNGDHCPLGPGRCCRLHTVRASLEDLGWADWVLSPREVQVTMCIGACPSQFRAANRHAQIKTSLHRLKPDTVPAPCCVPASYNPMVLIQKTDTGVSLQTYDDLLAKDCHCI
Description: as §1

[6] = target: T6, GDF15 mutant D289R (finger tip region), albumin fusion (human, UniProt Q99988 195-308); assay: as above
T6 construct: not shown: albumin fusion partner
T6 chain: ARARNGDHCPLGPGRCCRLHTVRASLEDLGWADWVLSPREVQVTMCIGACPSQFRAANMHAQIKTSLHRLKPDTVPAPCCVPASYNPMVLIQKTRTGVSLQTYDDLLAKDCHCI
Description: as §1

[7] = target: T7, GDF15 mutant S278R (back-of-hand), albumin fusion (human, UniProt Q99988 195-308); assay: as above
T7 construct: not shown: albumin fusion partner
T7 chain: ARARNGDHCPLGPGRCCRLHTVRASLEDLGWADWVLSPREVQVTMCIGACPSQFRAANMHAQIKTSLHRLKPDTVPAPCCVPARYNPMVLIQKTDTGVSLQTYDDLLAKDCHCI
Description: as §1

[8] = target: T8, Human GDF15 native: naturally produced human GDF15 purchased from Peprotech (human, UniProt Q99988 195-308); assay: Biacore SPR (rounded from Table 2, human GDF15 native)
T8 construct: Bought protein
T8 sequence: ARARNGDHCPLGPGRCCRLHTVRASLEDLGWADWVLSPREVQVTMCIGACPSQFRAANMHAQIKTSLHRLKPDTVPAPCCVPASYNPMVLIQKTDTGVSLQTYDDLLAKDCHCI
Description: (§2) Anti-human Fc capture antibody was immobilized at 0.5 μg/ml on CMS chip in all four flow cells to achieve 8000 to 12,000 resonance units (RU) on the surface. Anti-hGDF15 antibodies were captured at flow rate […], at 0.25 to 0.5 μg/ml on the chip to get about 30 RU in flow cells 2, 3 and 4. GDF15 ligand was flowed at […] over captured antibodies and reference flow cell 1 for 600 and 1200 seconds contact time. Eight doses serially diluted 1 to 2, ranging from 20 to 0.156 nM, were tested. All cycles were repeated twice, regenerated between cycles with 3M MgCl₂ at flow […], 20 seconds contact time. Data were normalized by subtracting reference flow cell results. Data were fit with 1:1 Kinetics model with RI (bulk refractive index) set constant at 0.

[9] = target: T9, Human His-GDF15: HIS-tagged human GDF15 (human, UniProt Q99988 195-308); assay: Biacore SPR, IgG captured via anti-human Fc, GDF15 in flow
T9 construct: not shown: His tag
T9 sequence: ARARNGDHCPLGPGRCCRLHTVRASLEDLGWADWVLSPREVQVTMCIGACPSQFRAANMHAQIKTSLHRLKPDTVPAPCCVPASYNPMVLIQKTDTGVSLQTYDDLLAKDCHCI
Description: (§3) Biacore assay is based on surface plasmon resonance (SPR) and were used to determine the binding affinity of antibodies to GDF15.
as §2

[10] = target: T10, Cyno His-GDF15: HIS-tagged cyno GDF15 (cynomolgus, UniProt G7PWZ3 197-308, limits assumed); assay: as above
T10 construct: not shown: His tag
T10 sequence (looked up): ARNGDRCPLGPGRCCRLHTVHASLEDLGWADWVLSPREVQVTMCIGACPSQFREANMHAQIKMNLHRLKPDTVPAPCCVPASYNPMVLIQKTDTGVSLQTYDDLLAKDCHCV
Description: as §3, §2

[11] = target: T11, Mouse His-GDF15: HIS-tagged mouse GDF15 (mouse, UniProt Q9Z0J7 189-303); assay: as above
T11 construct: not shown: His tag
T11 sequence (looked up): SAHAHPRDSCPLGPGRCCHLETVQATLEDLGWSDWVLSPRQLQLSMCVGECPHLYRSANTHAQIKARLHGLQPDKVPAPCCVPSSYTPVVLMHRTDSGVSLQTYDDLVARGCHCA
Description: as §3, §2

[12] = target: T12, Rat GDF15 HIS: HIS-tagged rat GDF15 (rat, UniProt Q9Z0J6 189-303, limits assumed); assay: as above
T12 construct: also called Rat His-GDF15; not shown: His tag
T12 sequence (looked up): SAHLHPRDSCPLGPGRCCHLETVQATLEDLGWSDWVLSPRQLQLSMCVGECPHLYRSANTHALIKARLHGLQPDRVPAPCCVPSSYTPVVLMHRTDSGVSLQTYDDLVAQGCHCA
Description: as §3, §2

[13] = target: T8, Human GDF15 native: naturally produced …; assay: as above
Description: as §3, §2

[14] = target: T13, GDF15 mutant L294R (knuckle region), albumin fusion (human, UniProt Q99988 195-308); assay: direct ELISA: albumin fusion GDF15 mutant coated on the plate, serially diluted antibody, anti-human IgG-HRP detection
T13 construct: not shown: albumin fusion partner
T13 chain: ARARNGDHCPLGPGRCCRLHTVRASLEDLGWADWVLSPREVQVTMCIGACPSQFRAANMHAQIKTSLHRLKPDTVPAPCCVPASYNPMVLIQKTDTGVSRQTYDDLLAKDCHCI
Description: as §1

[15] = target: T13, GDF15 mutant L294R (knuckle region), …; assay: direct ELISA on coated albumin-fusion GDF15 mutant
Description: as §1

[16] = target: T2, GDF15 mutant S231R (knuckle region), …; assay: direct ELISA: albumin fusion GDF15 mutant coated on the plate, serially diluted antibody, anti-human IgG-HRP detection
Description: as §1

Row | Binder | binding result [1] | binding result [3] | binding result [4] | binding result [5] | binding result [6] | binding result [7] | Kd [8] | Kd [9] | koff [9] | kon [9] | Kd [10] | koff [10] | kon [10] | Kd [11] | koff [11] | kon [11] | Kd [12] | koff [12] | kon [12] | Kd [13] | other results
1 | ABGDF15-B (antibody, human IgG1, lambda, V domains shown, captured through anti-human Fc in the Biacore assay) VH: QVQLVQSGAEVKKPGSSVKVSCKASGGTFRSYAVSWVRQAPGQGLEWMGGIIPIFGTANYAQKFQGRVTITADESTSTAYMELSSLRSEDTAVYYCARGPIIMGYQFGLFDHWGQGTLVTVSS VL: SYELTQPLSVSVALGQTARITCSGDNIGSHIVSWYQQKPGQAPVLVIYDKSNRPSGIPERFSGSNSGNTATLTISRAQAGDEADYYCQTWDSIGSVVFGGGTKLTVLG | no binding | binds | binds | binds | binds | binds | 0.115 nM | 0.0614 nM | 0.00054 s⁻¹ | 8.8e+06 M⁻¹ s⁻¹ | 0.0836 nM | 0.000461 s⁻¹ | 5.52e+06 M⁻¹ s⁻¹ | 0.237 nM | 0.000626 s⁻¹ | 2.64e+06 M⁻¹ s⁻¹ | 0.097 nM | 0.00052 s⁻¹ | 5.36e+06 M⁻¹ s⁻¹ | 0.115 nM | binding result [2]: no binding; koff [13]: 0.000389 s⁻¹; kon [13]: 3.38e+06 M⁻¹ s⁻¹; binding result [14]: binds
2 | ABGDF15-C (antibody, human IgG1, lambda, V domains shown, captured through anti-human Fc in the Biacore assay) VH: QVQLVQSGAEVKKPGSSVKVSCKASGGTFRSYAVSWVRQAPGQGLEWMGGIIPIFGTANYAQKFQGRVTITADESTSTAYMELSSLRSEDTAVYYCARGPIIMGYQFGLFDHWGQGTLVTVSS VL: SYELTQPPSVSVSPGQTASITCSGDNIGSHIVSWYQQKPGQSPVLVIYDKSNRPSGIPERFSGSNSGNTATLTISGTQAMDEADYYCQTWDSIGSVVFGGGTKLTVLG | no binding | binds | binds | binds | binds | binds | 0.066 nM | 0.0422 nM | 0.000468 s⁻¹ | 1.11e+07 M⁻¹ s⁻¹ | 0.065 nM | 0.000322 s⁻¹ | 4.96e+06 M⁻¹ s⁻¹ | 0.116 nM | 0.000505 s⁻¹ | 4.37e+06 M⁻¹ s⁻¹ | 0.0618 nM | 0.000483 s⁻¹ | 7.81e+06 M⁻¹ s⁻¹ | 0.0656 nM | binding result [2]: no binding; koff [13]: 0.000388 s⁻¹; kon [13]: 5.92e+06 M⁻¹ s⁻¹; binding result [14]: binds
3 | ABGDF15-D (antibody, human IgG1, lambda, V domains shown, captured through anti-human Fc in the Biacore assay) VH: EVQLVQSGAEVKKPGESLKISCKGSGYSFTSYWIGWVRQMPGKGLEWMGVIDPDGSYTIYSPSFQGQVTISADKSISTAYLQWSSLKASDTAMYYCARYGRYGTYFDYWGQGTLVTVSS VL: QSVLTQPPSVSGAPGQRVTISCSGSSSNIGVLYVNWYQQLPGTAPKLLIYSNDNRPSGVPDRFSGSKSGTSASLAITGLQAEDEADYYCQSWDSSSNYVFGGGTKLTVLG | – | binds | – | binds | – | – | – | – | – | – | 0.0141 nM | 0.000236 s⁻¹ | 1.67e+07 M⁻¹ s⁻¹ | 0.0457 nM | 0.000509 s⁻¹ | 1.11e+07 M⁻¹ s⁻¹ | 0.0281 nM | 0.000456 s⁻¹ | 1.62e+07 M⁻¹ s⁻¹ | – | –
4 | ABGDF15-F (antibody, human IgG1, lambda, V domains shown, captured through anti-human Fc in the Biacore assay) VH: EVQLVQSGAEVKKPGESLKISCKGSGYSFTSYWIGWVRQMPGKGLEWMGVIDPSGSYTIYSPSFQGQVTISADKSISTAYLQWSSLKASDTAMYYCARYGRYGTYFDYWGQGTLVTVSS VL: QSVLTQPPSVSGAPGQRVTISCSGSSSNIGVLYVNWYQQLPGTAPKLLIYSNDNRPSGVPDRFSGSKSGTSASLAITGLQAEDEADYYCQSWDSSSNYVFGGGTKLTVLG | no binding | binds | binds | binds | binds | binds | 0.037 nM | 0.0115 nM | 0.00048 s⁻¹ | 4.19e+07 M⁻¹ s⁻¹ | 0.035 nM | 0.00044 s⁻¹ | 1.26e+07 M⁻¹ s⁻¹ | 0.0964 nM | 0.000584 s⁻¹ | 6.05e+06 M⁻¹ s⁻¹ | 0.0485 nM | 0.000538 s⁻¹ | 1.11e+07 M⁻¹ s⁻¹ | 0.0368 nM | binding result [15]: no binding; koff [13]: 0.000696 s⁻¹; kon [13]: 1.89e+07 M⁻¹ s⁻¹; binding result [16]: binds
5 | ABGDF15-E (antibody, human IgG1, lambda, V domains shown, captured through anti-human Fc in the Biacore assay) VH: EVQLVQSGAEVKKPGESLKISCKGSGYSFTSYWIGWVRQMPGKGLEWMGVIDPGGSYTIYSPSFQGQVTISADKSISTAYLQWSSLKASDTAMYYCARYGRYGTYFDYWGQGTLVTVSS VL: QSVLTQPPSVSGAPGQRVTISCSGSSSNIGVLYVNWYQQLPGTAPKLLIYSNDNRPSGVPDRFSGSKSGTSASLAITGLQAEDEADYYCQSWDSSSNYVFGGGTKLTVLG | – | binds | – | binds | – | – | – | – | – | – | 0.0303 nM | 0.00038 s⁻¹ | 1.26e+07 M⁻¹ s⁻¹ | 0.079 nM | 0.000535 s⁻¹ | 6.78e+06 M⁻¹ s⁻¹ | 0.0396 nM | 0.000428 s⁻¹ | 1.08e+07 M⁻¹ s⁻¹ | – | –
